Laboratory results: PMC4775226, “Active and water-soluble form of lipidated Wnt protein is maintained by a serum glycoprotein afamin/α-albumin” (eLife, 2016)

T1: Tg-tagged human afamin (human, UniProt P43652 22-599)
T1 construct: human afamin with a long (36 residues) N-terminal tag peptide; cDNA was a gift from Luc Bélanger; built by the same strategy as the tagged Wnts (tag, TEV site); also called Tg-hAFM; Tg-AFM; source: Expi293F cells, transiently co-transfected with PA-tagged Wnts, in serum-free culture medium; not shown: TARGET (Tg) tag, N-terminal, kept
T1 sequence (looked up): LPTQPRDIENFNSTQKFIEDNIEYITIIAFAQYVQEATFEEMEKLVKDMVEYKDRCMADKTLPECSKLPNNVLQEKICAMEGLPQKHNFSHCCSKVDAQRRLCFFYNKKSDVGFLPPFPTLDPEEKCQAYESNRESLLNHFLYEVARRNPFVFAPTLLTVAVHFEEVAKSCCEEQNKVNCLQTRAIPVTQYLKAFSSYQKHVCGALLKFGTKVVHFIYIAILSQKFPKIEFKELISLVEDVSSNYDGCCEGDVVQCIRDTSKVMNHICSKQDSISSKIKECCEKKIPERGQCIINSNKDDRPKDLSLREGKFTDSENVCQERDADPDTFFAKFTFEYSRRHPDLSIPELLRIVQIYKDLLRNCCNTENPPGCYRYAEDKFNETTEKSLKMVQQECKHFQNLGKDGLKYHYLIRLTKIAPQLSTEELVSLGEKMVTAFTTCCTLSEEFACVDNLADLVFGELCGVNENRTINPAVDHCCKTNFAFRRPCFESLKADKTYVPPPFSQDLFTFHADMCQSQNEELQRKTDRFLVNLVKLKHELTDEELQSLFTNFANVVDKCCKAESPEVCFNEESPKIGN


Legend:
[1] = target: T1, Tg-tagged human afamin; assay: co-IP; anti-Tg antibody P20.1-Sepharose, serum-free culture media of Expi293F cells co-transfected with Tg-hAFM and PA-tagged human Wnts; immunoblot with biotinylated NZ-1; conditions: partners not purified
[2] = target: T2, TARGET-tagged mouse Wnt3a (mouse, UniProt P27467 19-352); assay: SEC; immunoaffinity-purified Wnt preparation on Superdex 200 10/300GL in TBS, no detergent; fractions on nonreducing SDS-PAGE, Coomassie stain and immunoblots; conditions: both partners purified
T2 construct: Construct design (N-terminal region from the initiation Met) is in Supplementary file 1; also called Tg-Wnt3a; tagged Wnt3a; source: purified on P20.1-Sepharose (peptide elution), SEC; not shown: TARGET (Tg) tag, N-terminal, kept
T2 sequence (P27467 19-352): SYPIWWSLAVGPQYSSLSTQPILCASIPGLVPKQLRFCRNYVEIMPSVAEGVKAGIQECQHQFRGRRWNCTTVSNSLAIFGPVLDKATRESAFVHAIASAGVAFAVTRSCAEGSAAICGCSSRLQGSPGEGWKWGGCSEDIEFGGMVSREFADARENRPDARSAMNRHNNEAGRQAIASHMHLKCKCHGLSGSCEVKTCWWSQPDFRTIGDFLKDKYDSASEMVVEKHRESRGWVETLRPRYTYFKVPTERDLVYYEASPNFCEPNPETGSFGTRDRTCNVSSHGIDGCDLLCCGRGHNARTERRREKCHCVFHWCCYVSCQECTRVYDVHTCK

Binder | binding result [1] | stoichiometry N [2]
PA-tagged human Wnt3 (natural protein, UniProt P56703 22-355, looked up) GYPIWWSLALGQQYTSLGSQPLLCGSIPGLVPKQLRFCRNYIEIMPSVAEGVKLGIQECQHQFRGRRWNCTTIDDSLAIFGPVLDKATRESAFVHAIASAGVAFAVTRSCAEGTSTICGCDSHHKGPPGEGWKWGGCSEDADFGVLVSREFADARENRPDARSAMNKHNNEAGRTTILDHMHLKCKCHGLSGSCEVKTCWWAQPDFRAIGDFLKDKYDSASEMVVEKHRESRGWVETLRAKYSLFKPPTERDLVYYENSPNFCEPNPETGSFGTRDRTCNVTSHGIDGCDLLCCGRGHNTRTEKRKEKCHCIFHWCCYVSCQECIRIYDVHTCK | binds | –
bovine afamin from the serum of the culture medium (natural protein, UniProt G3MYZ3 22-604, looked up, bovine afamin, serum-derived; Glycoprotein of about 70 kDa; also called AFM; α-albumin; source: endogenous, fetal calf serum in the culture medium) LPTQPQDVDDVRITQKFIDDNIGYITIIAFAQYIQEASFEEVEMLVKAMTEYRDKCLADRTLPECSKLANEVLLENICAMEGLPQKYNFSHCCHKVDFERRLCFFHNKKADIGLLPPLPTLDPEEKCQTYKNNRESFLNNYVYEVSRRNPFVFAPTLLTVAARFEEMTKTCCEEQEKANCFQTKAEPFIYYLKALSSYQKNACRALMKFGRQILQSINIAILSQKFPKIGFKQLTSLLEDVSSKYDGCCEGDVVQCIRGRSKVMSHICSKQDSISSKIKDCCEKKIPERGECIIYSNKDDRPNDLSLREAKFIESDNVCEKRDADQANFMAEFLYEYSRRHPELSTPELLRIAKVYKDLLKECCNMENPPECYRHAENRFNETTEKSLKIVQRECEHFQNLGKDDLKYHYLINLTKLAPQLSTEELTFLGKEMVMALTTCCTLSEEFACVDNLVDLVLGELCGINENRNINPAVDHCCKTNFAFRRSCFESLEADKTYVPPSTSQGLFTFHADLCQAHNEELQRKKDRFLVNLVKLKPELAGEELWSLLADFTNVVEKCCKAQEPEACFKEESPKLAAKSQAA | – | 1
